This note sets out measurements from paper doi:10.1101/2024.05.01.590489 (bioRxiv, 2024).

To fix the notation:
B1: Fab3-2 (Fab, V domains shown)
VH: EVQLLESGGGLVQPGGSLRLSCAASGFTFSNYAMSWVRQAPGKGLEWVSLISGSGGSIDYADSVKGRFTISRDNSKNTLYLQMDSLRAEDTAVYYCSKDPIYYDLSGYYAGRIYYFDYWGQGTLVTVSS
VL: EIVMTQSPATLSVSPGDTATLSCRASHSVSRDLAWYQQKPGQAPRLLIYDASTRATGIPARFSGSGSGTEFTLTISSLQSEDFAVYYCQQYINWVTFGPGTKVDIE
B2: Fab2-2 (Fab, V domains shown)
VH: QVQLQESGPGLVKPSVTLSLTCTVSGDSISTYYWSWVRQPPGKGLEWIGYIYYSGNTNYNPSLKSRVTMSVDTSKNQFSLKLNSVTAADTAVYYCARTHHDYGDYRPSYYFDYWGQGTLVTVSS
VL: QSALTQPASVSGSPGQSITISCTGTSSDVGAYDYVSWYQQHPGKAPKLMIYDVSNRPSSGVSNRFSGSKSGNTASLTISGLQAEDEADYYCSSYTSSSTVILGGGTKLTVL
B3: Fab3-7 (Fab, V domains shown)
VH: QVQLQESGPGLVKPSETLSLTCTVSGGSISNYYWNWIRQPPGKGLEWIGYVHYSGSTNYNPSLKSRVSVSVDTSKNQFSLNLGSVTAADTAVYYCARQSRSYYNEVITDPKYNFDYWGQGTLVTVSS
VL: QSALTQPASVSGSPGQSITISCTGTSSDVGGYDYVSWYQQHPGKAPKLMIYDVSNRPSGVSNRFSGSKSGNTASLTISGLQAEDEADYYCSSYTSISTLVFGGGTKLTVL
B4: Fab3-6 (Fab, V domains shown)
VH: EVQLVESGGGLVQPGGSLRLSCSASGFHFSSYEMNWVRQAPGKGLEWVSYISSSGTYIDYADSVKGRFTISRDNPANSLYLQMYSLRAEDTAVYYCARRLWFGELPYSYYYGMDVWGQGTTVTVSS
VL: ALTQPASVSGSPGQSITISCTGTSSDIGGYNYVSWYQQHPGKAPELLIFDVSNRPSGVSNRFSGSKSGNTASLTISGLQAEDEADYHCCSYTRTSTVIFGGGTKLTVL
B5: Fab3-5 (Fab, V domains shown)
VH: EVQLVESGGGLVQPGGSLRLSCAASGFTFSNYGMNWVRQAPGKGLEWVSYISSGGTIYYADSVKGRFTISRDNAKNSVYLQMNSLRAEDTAVYYCARDPAYCGDDCYTIPAHYFDYWGQGTPVTVS
VL: DIQMTQSPSSLSASVGDRVTITCRTSQSISRYLNWYQQKPGKAPKLLIYAASSLQSGVPSRFTGSGSGTDFTLTISSLQPEDFATYYCQQSYSIPPVTFGQGTRVD
B6: Fab1-5 (Fab, V domains shown)
VH: EVQLVESGGGLVKPGGSLRLSCAASGFMFSSYSMNWVRQAPGKGLEWVSSISRSDSYIDYADSVKGRFTISRDTAMNVLYLQMDSLRAEDTGVYYCARTHVFNMFREVINDDYYGMDVWGQGTTVTVS
VL: ALTQPASVSGSPGQSITISCTGTSSDFGIYNSVSWYQHHPGKAPKLMIFGVSNRPSGVSNRFSGSKSGNTASLSISGLQAEDEADYYCSSFTARSTVVFGGGTKLTVL
B7: Fab3-1 (Fab, V domains shown)
VH: EVQLLESGGGLVQPGGSLRLSCEASGFTFSRYPMNWVRQAPGKGLEWVSHISASGGTTYYADTVKGRFSISRDNSKNTLYLEMNSLRAEDTAIYFCAKDYPPDEVTMIVVGMPYFDSWGLGTLVSVSS
VL: not shown
B8: Fab1-2 (Fab, V domains shown)
VH: EVQLVESGGGLVQPGGSLRLSCAASGFIFSNYWMSWVRQAPGKGPEWVANIKQDGSANHYVDSVKGRFTISRDNAKNSLYLQMNSLRAEDTAVYYCAREAYQDWNYDYWGQGTLVTVSS
VL: DIQMTQSPSSLSASVGDRVTVTCRASEFISRYLNWYQQKPGKAPKVLIYAASSLQSGVPSRFSGSGSGTDFTLTISSLQPEDFATYYCQQSYSTPYTFGQGTKLEIK

This assay deals with AAV9 capsid (adeno-associated virus serotype 9 (AAV9), UniProt Q6JC40). The assay can be described thus: cryo-EM structure.
As for B1, the binding result is “binds”.

As for B2, the binding result was “binds”.

With B3, the binding result is reported as “binds”.

B4: the binding result was “binds”.

Consider B5, for which the binding result is “binds”.

Turning to B6, the binding result is recorded as “binds”.

For B7, the binding result is “binds”.

For the molecule B8, the binding result is reported as “binds”.
